Laboratory results: the RNAGym collection of RNA variant scans (doi:10.7554/elife.80360)

B1: Hammerhead Ribozyme (parent)
chain: ACCGGAUGUGCUUUCCGGUCUGAUGAGUCCGUGAGGACGAAACAG

Variants of: B1
Experiment: self-cleavage, relative activity (ratio to wild type); higher = more cleavage; co-transcriptional

In order of falling self-cleavage:
1. ACCGCAUGUGCUUUUCGGUCUGAUGAGUCCGUGAGGACGAAACAG  1.31
2. ACCGCAUGUGCUUUCAGGUCUGAUGAGUCCGUGAGGACGAAACAG  1.19
3. ACCGCAUGUGCUUUGCGGUCUGAUGAGUCCGUGAGGACGAAACAG  1.13
4. ACCGCAUGUGCUUUACGGUCUGAUGAGUCCGUGAGGACGAAACAG  0.953
5. ACCGCAUGUGCUUUCUGGUCUGAUGAGUCCGUGAGGACGAAACAG  0.883
6. ACCGCAUGUGGUUUCCGGUCUGAUGAGUCCGUGAGGACGAAACAG  0.873
7. ACCGCAUGUGCUUUCCGGUCUGAUGAGUCCGUGAGGACGAAACGG  0.831
8. ACCGCAUCUGCUUUCCGGUCUGAUGAGUCCGUGAGGACGAAACAG  0.77
9. ACCGCAUGUGAUUUCCGGUCUGAUGAGUCCGUGAGGACGAAACAG  0.761
10. ACCGCAUGUGCUUUCGGGUCUGAUGAGUCCGUGAGGACGAAACAG  0.716
11. ACCGCAUUUGCUUUCCGGUCUGAUGAGUCCGUGAGGACGAAACAG  0.693
12. ACCGCAUGUUCUUUCCGGUCUGAUGAGUCCGUGAGGACGAAACAG  0.64
13. ACCGCAUGUACUUUCCGGUCUGAUGAGUCCGUGAGGACGAAACAG  0.638
14. ACCGCAUGUGCUUUCCGGUCUGAUGAGUCAGUGAGGACGAAACAG  0.623
15. ACCGCAUAUGCUUUCCGGUCUGAUGAGUCCGUGAGGACGAAACAG  0.619
16. ACCGCAUGUGCUUUCCGGUCUGAUGAGUCUGUGAGGACGAAACAG  0.539
17. ACCGCAUGUGCUUUCCGGUCUGAUGAGUUCGUGAGGACGAAACAG  0.504
18. ACCGCAUGUGCUUUCCGGUCUGAUGAGUCCGUGAGGAUGAAACAG  0.479
19. ACCGCAUGUCCUUUCCGGUCUGAUGAGUCCGUGAGGACGAAACAG  0.441
20. ACCGCAUGUGCUUUCCGGUCUGAUCAGUCCGUGAGGACGAAACAG  0.397
21. ACCGCAUGUGCUUUCCUGUCUGAUGAGUCCGUGAGGACGAAACAG  0.381
22. ACCGCAUGUGCUUUCCGGUCUGAUGAGUCCGUGAGGACGAAACUG  0.358
23. ACCGCAUGUGCUUUCCGGUUUGAUGAGUCCGUGAGGACGAAACAG  0.358
24. ACCGCAUGUGCUUUCCGGUCUGAUGAGUCCGUGAGGACGAACCAG  0.356
25. ACCGCAUGUGCUUUCCGGUCUGAUGACUCCGUGAGGACGAAACAG  0.354
26. ACCGCAUGUGCUUUCCGGUCUGAUGAAUCCGUGAGGACGAAACAG  0.351
27. ACCGCAUGUGCUUUCCGGUCUGAUGAGUCCGUGAGGACGAAACCG  0.345
28. ACCGCAUGUGCUUUCCGGUCUGAUGAGUGCGUGAGGACGAAACAG  0.344
29. ACCGCAUGUGCUUUCCGCUCUGAUGAGUCCGUGAGGACGAAACAG  0.34
30. ACCGCAUGUGUUUUCCGGUCUGAUGAGUCCGUGAGGACGAAACAG  0.336
31. ACCGCAUGUGCUUUCCGGUCUGAUGAGUCCGUGAGGACGAAAGAG  0.33
32. ACCGCAUGUGCUUUCCGGUCUGAUGAGUCCGUGAGGACGAAUCAG  0.328
33. ACCGCAUGUGCUUUCCGGUCUGAUGAGUCCGUGAGGACGAUACAG  0.326
34. ACCGCAUGUGCUUUCCGGUCUGAUGAGUCCGUGAGGACGCAACAG  0.325
35. ACCGCAUGUGCUUUCCGGUCUGAUGAGUCCGUGAGGACGAAAUAG  0.316
36. ACCGCAUGUGCUUUCCGGUCUGAUGAGUCGGUGAGGACGAAACAG  0.314
37. ACCGCAUGUGCUUUCCAGUCUGAUGAGUCCGUGAGGACGAAACAG  0.313
38. ACCGCAUGUGCUUUCCGUUCUGAUGAGUCCGUGAGGACGAAACAG  0.307
39. ACCGCAUGUGCUUUCCGGUCUGAUUAGUCCGUGAGGACGAAACAG  0.307
40. ACCGCAUGUGCUUUCCGGUCUGAUAAGUCCGUGAGGACGAAACAG  0.305
41. ACCGCAUGUGCUUUCCGGUCUUAUGAGUCCGUGAGGACGAAACAG  0.299
42. ACCGCAUGUGCUUUCCGGUCUGAUGAGUCCGUGAGGACGAAAAAG  0.294
43. ACCGCAUGUGCUUUCCGAUCUGAUGAGUCCGUGAGGACGAAACAG  0.293
44. ACCGCAUGUGCUUUCCGGUCUGAUGAGUCCGUGAGGAGGAAACAG  0.278
45. ACCGCAUGUGCUUUCCGGUAUGAUGAGUCCGUGAGGACGAAACAG  0.271
46. ACCGCAUGUGCUUUCCGGUCUGAUGAGUCCGUGAGGACGAGACAG  0.27
47. ACCGCAUGUGCUUUCCCGUCUGAUGAGUCCGUGAGGACGAAACAG  0.268
48. ACCGCAUGUGCUUUCCGGUGUGAUGAGUCCGUGAGGACGAAACAG  0.265
49. ACCGCAUGUGCUUUCCGGUCUGAUGAGUCCGUGAGGAAGAAACAG  0.264
50. ACCGCAUGUGCUUUCCGGUCUAAUGAGUCCGUGAGGACGAAACAG  0.263
51. ACCGCAUGUGCUUUCCGGUCUGAUGAGUACGUGAGGACGAAACAG  0.256
52. ACCGCAUGUGCUUUCCGGUCUGAUGAGUCCGUGAGGACGACACAG  0.249
53. ACCGCAUGUGCUUUCCGGUCUCAUGAGUCCGUGAGGACGAAACAG  0.243
54. ACCGCAUGUGCUUUCCGGUCUGAUGAGUCCGUGAGGACGAAGCAG  0.24
55. ACCGCAUGUGCUUUCCGGUCUGAUGAGUCCGUGAGGUCGAAACAG  0.238
56. ACCGCAUGUGCUUUCCGGUCUGAUGAGUCCGUGAGGACGGAACAG  0.237
57. ACCGCAUGUGCUUUCCGGUCUGAUGAGUCCGUGAGGACGUAACAG  0.23
